Here are results for 8 sequences from the supplement of paper PMC9233669.

One series concerns biotinyl-Val-oxazolone. In words: self-aminoacylation, catalytic enhancement (BVO) (fold over background); higher = more active; k-Seq, kA / k0A0; sequences stand for … in GGGAAUGGAUCCACAUCUACGAAUUC…UUCACUGCAGACUUGACGAAGCUG
The method in brief:
(§1)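 Mutagenized RNA pools (0.43 μM; 21-nt variable region) were treated with 2–1250 μM of each biotinyl-aminoacyl-oxazolone. Conditions were 50 μL HEPES/NaCl/KCl/MgCl2/CaCl2 buffer, 5% acetonitrile, pH 6.9–7.0, room temperature, 90 minutes. Catalytic enhancement, the median kA relative to the uncatalyzed rate, was derived from streptavidin capture, qPCR and Illumina sequencing.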

The subject of the next series is biotinyl-Ile-oxazolone. The experiment in a line: self-aminoacylation, catalytic enhancement (BIO) (fold over background); higher = more active; k-Seq, kA / k0A0; sequences stand for … in GGGAAUGGAUCCACAUCUACGAAUUC…UUCACUGCAGACUUGACGAAGCUG
The gist of the method: as §1

A further series has as its system biotinyl-Phe-oxazolone. In words: self-aminoacylation, catalytic enhancement (BFO) (fold over background); higher = more active; k-Seq, kA / k0A0; sequences stand for … in GGGAAUGGAUCCACAUCUACGAAUUC…UUCACUGCAGACUUGACGAAGCUG
The gist of the method:
as §1

In a further series the test system is biotinyl-Met-oxazolone. In words: self-aminoacylation, catalytic enhancement (BMO) (fold over background); higher = more active; k-Seq, kA / k0A0; sequences stand for … in GGGAAUGGAUCCACAUCUACGAAUUC…UUCACUGCAGACUUGACGAAGCUG
The method in brief:
as §1

The test system of a further series is biotinyl-Trp-oxazolone. In words: self-aminoacylation, catalytic enhancement (BWO) (fold over background); higher = more active; k-Seq, kA / k0A0; sequences stand for … in GGGAAUGGAUCCACAUCUACGAAUUC…UUCACUGCAGACUUGACGAAGCUG
The method in brief:
as §1

The test system of the next series is biotinyl-Leu-oxazolone. The experiment in a line: self-aminoacylation, catalytic enhancement (BLO) (fold over background); higher = more active; k-Seq, kA / k0A0; sequences stand for … in GGGAAUGGAUCCACAUCUACGAAUUC…UUCACUGCAGACUUGACGAAGCUG
The method in brief: as §1

Fewer inactive variants are shown than the library holds.

Take “AUCACCCCGGUCAUCGAGUGA [Fam2.1 aminoacylation ribozyme variant]”: the self-aminoacylation was 4.47 with biotinyl-Val-oxazolone; 4.51 with biotinyl-Ile-oxazolone; 52.6 in the series with biotinyl-Phe-oxazolone; 8.33 with biotinyl-Met-oxazolone; 9.73 in the series on biotinyl-Trp-oxazolone; 10.2 in the series with biotinyl-Leu-oxazolone.

Consider “CCACGCUUCAUGCAAUCGGUC [Fam1B.1 aminoacylation ribozyme variant]”, for which the self-aminoacylation with biotinyl-Val-oxazolone was determined as 1.06; in the series with biotinyl-Ile-oxazolone, 0.812; in the series on biotinyl-Phe-oxazolone it was 0.756; with biotinyl-Met-oxazolone it was 0.782; in the series with biotinyl-Trp-oxazolone it was 0.507; in the series on biotinyl-Leu-oxazolone it was 0.749.

As to “AGCCACCUAGGUCAUCGGGUG [Fam2.2 aminoacylation ribozyme variant]”, the self-aminoacylation with biotinyl-Val-oxazolone came to 6.3; with biotinyl-Ile-oxazolone it was 6.24; in the series with biotinyl-Phe-oxazolone it was 81.6; with biotinyl-Met-oxazolone it was 7.16; in the series on biotinyl-Trp-oxazolone it was 10.3; with biotinyl-Leu-oxazolone it was 8.17.

On to “AAGUUUGCUAUUAGUCGUAAG [Fam3.1 aminoacylation ribozyme variant]”, for which the self-aminoacylation in the series on biotinyl-Val-oxazolone was found to be 0.923; with biotinyl-Ile-oxazolone, 0.868; in the series on biotinyl-Phe-oxazolone it was 0.987; with biotinyl-Met-oxazolone, 0.884; in the series on biotinyl-Trp-oxazolone, 1.13; in the series on biotinyl-Leu-oxazolone, 0.851.

As to “AUUACCCUGGUUGUCGAGUGA [Fam2.1 aminoacylation ribozyme variant]”, the self-aminoacylation in the series on biotinyl-Val-oxazolone worked out at 1.33; in the series on biotinyl-Ile-oxazolone, 1.38; with biotinyl-Phe-oxazolone it was 1.97; with biotinyl-Met-oxazolone, 1.91; in the series with biotinyl-Trp-oxazolone it was 3.23; with biotinyl-Leu-oxazolone it was 1.85.

For the sequence “AUACUUCAAGCAAUCGGUCUG [Fam1A.1 aminoacylation ribozyme variant]”, the self-aminoacylation with biotinyl-Val-oxazolone amounted to 0.77; in the series on biotinyl-Ile-oxazolone it was 0.786; in the series on biotinyl-Phe-oxazolone, 2.15; in the series on biotinyl-Met-oxazolone it was 0.824; in the series with biotinyl-Trp-oxazolone it was 1.48; in the series on biotinyl-Leu-oxazolone it was 0.853.

On to “CCACACUUUAAGCAAUCGGCC [Fam1B.1 aminoacylation ribozyme variant]”, for which the self-aminoacylation in the series on biotinyl-Val-oxazolone is 1.74; in the series with biotinyl-Ile-oxazolone, 1.52; in the series with biotinyl-Phe-oxazolone it was 1.64; with biotinyl-Met-oxazolone it was 1.58; with biotinyl-Trp-oxazolone, 1.85; with biotinyl-Leu-oxazolone, 1.22.

For “CUACUUCUAACAAUCGGUCCG [Fam1A.1 aminoacylation ribozyme variant]”, the self-aminoacylation in the series on biotinyl-Val-oxazolone was determined as 0.621; in the series on biotinyl-Ile-oxazolone it was 0.708; in the series with biotinyl-Phe-oxazolone it was 0.505; with biotinyl-Met-oxazolone, 0.765; in the series with biotinyl-Trp-oxazolone it was 0.63; in the series with biotinyl-Leu-oxazolone, 0.799.
